This assay has as its target HLA-A*02:01 MHC Class I complex (recombinant, biotinylated) (human). Description: displacement of the FITC-labelled in-place peptide from 1 uM HLA-A*02:01; competitor: incoming peptide [..] at 20 uM with 10 mM GlyCha, 4 h at room temperature; FITC on streptavidin capture beads by flow cytometry.

B1: EP3 … (SEQ ID NO: 1), FITC-labelled in-place peptide GMGQ{Lys(FITC)}DSYV (peptide)
peptide: GMGQKDSYV
modifications: not checked
As to B1, the exchange efficiency was determined as 1.

These data come from patent US20240272171A1, “Methods for Identification of Exchangeable MHC Binding Peptides and Methods of Use Thereof” (PhenomeX Inc., priority 2020, published 2024).
